Experimental data from patent US20100081126, “PROCESS FOR DESIGNING INHIBITORS OF INFLUENZA VIRUS STRUCTURAL PROTEIN-1” (RUTGERS, THE STATE UNIVERSITY OF NEW JERSEY, published 2010).

Target: NS1A(1-73), NS1 protein N-terminal dsRNA-binding domain (Influenza A virus (A/Udorn/72)?, UniProt B4URE2 SEQ:1-73)
Sequence (B4URE2 1-73): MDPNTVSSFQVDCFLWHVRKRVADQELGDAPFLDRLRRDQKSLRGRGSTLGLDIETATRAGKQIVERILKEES

B1: 16-bp dsRNA (RR) (dsRNA)
RNA 1: CCAUCCUCUACAGGCG
RNA 2: CGCCUGUAGAGGAUGG
B1 showed a Kd of 748 nM.
